# Measured values from article PMC5864845, “Engineering enhanced cellobiohydrolase activity” (Nature Communications, 2018).
# Substrate: [H][C@@]1(O[C@H]2[C@H](O)[C@@H](O)[C@H](Oc3ccc([N+](=O)[O-])cc3)O[C@@H]2CO)O[C@H](CO)[C@H](O)[C@H](O)[C@H]1O
# Assay: p-nitrophenol release, A405, Michaelis-Menten fit
# Assay type: biochemical, Trichoderma reesei
# Details: 20 mM acetate pH 5.0, 100 mM NaCl, 40 °C
# Protocol: p-nitrophenol release, A405, Michaelis-Menten fit on […] | Vmax and Km were determined using p-nitrophenyl-β-D-lactopyranoside (pNPL, Sigma) as substrate
protein,measurement,value
"TrCel7A (Trichoderma reesei) (protein, full length wild type (catalytic domain, linker, CBM1), secreted and purified from Trichoderma reesei AST1116 (QM6A, cbh1 deletion) host, pTrEno) QSACTLQSETHPPLTWQKCSSGGTCTQQTGSVVIDANWRWTHATNSSTNCYDGNTWSSTLCPDNETCAKNCCLDGAAYASTYGVTTSGNSLSIGFVTQSAQKNVGARLYLMASDTTYQEFTLLGNEFSFDVDVSQLPCGLNGALYFVSMDADGGVSKYPTNTAGAKYGTGYCDSQCPRDLKFINGQANVEGWEPSSNNANTGIGGHGSCCSEMDIWEANSISEALTPHPCTTVGQEICEGDGCGGTYSDNRYGGTCDPDGCDWNPYRLGNTSFYGPGSSFTLDTTKKLTVVTQFETSGAINRYYVQNGVTFQQPNAELGSYSGNELNDDYCTAEEAEFGGSSFSDKGGLTQFKKATSGGMVLVMSLWDDYYANMLWLDSTYPTNETSSTPGAVRGSCSTSSGVPAQVESQSPNAKVTFSNIKFGPIGSTGNPSGGNPPGGNRGTTTTRRPATTTGSSPGPTQSHYGQCGGIGYSGPTVCASGTTCQVLNPYYSQCL",Km,2195 ± 880 µM
same,kcat,0.2377 ± 0.0175 s⁻¹
